Patent US20250109178A1 (XYPHOS BIOSCIENCES, published 2025)

What was measured:
Fc-NKG2D.Y152A [1] = target: T1, Fc-NKG2D.Y152A (human); experiment: ELISA and Octet
T1 construct: also called NKG2D.YA; Fc-NKG2D.YA

[2] = target: T2, Fc-NKG2D.wt (natural human NKG2D ectodomain fused to the C-terminus of human IgG1 Fc) (human); experiment: ELISA, rituximab MicAbody on Fc-NKG2D (legend of FIGS. 16A and 16B)
T2 construct: also called natural Fc-NKG2D; wild-type Fc-NKG2D

[3] = target: T2, Fc-NKG2D.wt (natural human NKG2D …); experiment: titration ELISA, Fc-NKG2D coated, rituximab MicAbody titrated
Fc-NKG2D.Y152A [4] = target: T1, Fc-NKG2D.Y152A; experiment: ELISA, Fc-eNKG2D coated, MicAbody titrated from 300 nM
Experimental: (§1) The binding affinities of α1-α2 variants to the extracellular domains of natural (wild-type) NKG2D and non-natural eNKG2D proteins were analyzed using a plate-based ELISA method. […] The plates were washed three times in PBS/0.05% Tween-20 (PBS-T) at 20-22° C., and blocked with 0.5% bovine serum albumin in PBS (PBS-B) for 2 hours at 20-22° C.

[5] = target: T2, Fc-NKG2D.wt (natural human NKG2D …); experiment: ELISA, Fc-NKG2D coated, MicAbody titrated from 300 nM (GraphPad Prism)
Experimental: as §1

[6] = target: Fc-NKG2D.AF, eNKG2D5 (Y152A/Y199F) (human); experiment: ELISA, Fc-NKG2D coated, rituximab MicAbody titrated (FIGS. 16A and 16B)
Sequence of Fc-NKG2D.AF, eNKG2D5 (Y152A/Y199F) (human) (chain, as listed by the source Y152A Y199F Y152A Y199F limits assumed): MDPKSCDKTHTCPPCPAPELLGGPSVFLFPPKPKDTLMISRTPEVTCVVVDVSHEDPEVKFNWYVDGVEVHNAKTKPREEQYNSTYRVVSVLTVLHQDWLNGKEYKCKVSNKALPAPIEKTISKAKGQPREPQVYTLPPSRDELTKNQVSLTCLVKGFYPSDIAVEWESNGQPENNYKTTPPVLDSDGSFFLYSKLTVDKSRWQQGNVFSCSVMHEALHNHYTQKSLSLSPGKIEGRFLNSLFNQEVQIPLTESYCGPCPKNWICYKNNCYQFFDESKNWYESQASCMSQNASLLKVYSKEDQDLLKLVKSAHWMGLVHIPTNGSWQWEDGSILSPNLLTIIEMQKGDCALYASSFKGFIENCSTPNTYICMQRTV

[7] = target: T2, Fc-NKG2D.wt (natural human NKG2D …); experiment: as above
Fc-NKG2D.Y152A [8] = target: T1, Fc-NKG2D.Y152A; experiment: as above

T1 sequence (chain, as listed by the source Y152A Y152A limits assumed): as the sequence (chain, as listed by the source Y152A Y199F Y152A Y199F limits assumed) above, with F359Y counted along it
T2 sequence (chain, as listed by the source limits assumed): as the sequence (chain, as listed by the source Y152A Y199F Y152A Y199F limits assumed) above, with A312Y, F359Y counted along it

B1: ULBP2.S3 α1-α2 domain, monomeric His-tagged format (ligand)
chain: EPHSLSYDITVIPKFRPGPRWCAVQGQVDEKTFLHYDCGNKTVTPVSPLGKKLNVTTAWKAQNPVLREVVDILTEQLWDIQLENYTPKEPLTLQARMSCEQKAEGHSSGSWQFSFDGQIFLLFDSEKRMWTTVHPGARKMKEKWENDKVVATKLYLWSMGDCIGWLEDFLMGMDSTLEPS
notes: also called ULBP2.S3 (monomeric His-tagged); not shown: His tag
- binding result (Fc-NKG2D.Y152A [1]): binds

B2: rituximab-ULBP2.R80W MicAbody (bispecific antibody, human IgG1, kappa, N297A)
heavy: QVQLQQPGAELVKPGASVKMSCKASGYTFTSYNMHWVKQTPGRGLEWIGAIYPGNGDTSYNQKFKGKATLTADKSSSTAYMQLSSLTSEDSAVYYCARSTYYGGDWYFNVWGAGTTVTVSAASTKGPSVFPLAPSSKSTSGGTAALGCLVKDYFPEPVTVSWNSGALTSGVHTFPAVLQSSGLYSLSSVVTVPSSSLGTQTYICNVNHKPSNTKVDKKVEPKSCDKTHTCPPCPAPELLGGPSVFLFPPKPKDTLMISRTPEVTCVVVAVSHEDPEVKFNWYVDGVEVHNAKTKPREEQYASTYRVVSVLTVLHQDWLNGKEYKCKVSNKALPAPIEKTISKAKGQPREPQVYTLPPSRDELTKNQVSLTCLVKGFYPSDIAVEWESNGQPENNYKTTPPVLDSDGSFFLYSKLTVDKSRWQQGNVFSCSVMHEALHNHYTQKSLSLSPGGGGSEPHSLSYDITVIPKFRPGPRWCAVQGQVDEKTFLHYDCGNKTVTPVSPLGKKLNVTTAWKAQNPVLREVVDILTEQLWDIQLENYTPKEPLTLQARMSCEQKAEGHSSGSWQFSFDGQIFLLFDSEKRMWTTVHPGARKMKEKWENDKVVAMSFHYFSMGDCIGWLEDFLMGMDSTLEPS
light: QIVLSQSPAILSASPGEKVTMTCRASSSVSYIHWFQQKPGSSPKPWIYATSNLASGVPVRFSGSGSGTSYSLTISRVEAEDAATYYCQQWTSNPPTFGGGTKLEIKTVAAPSVFIFPPSDEQLKSGTASVVCLLNNFYPREAKVQWKVDNALQSGNSQESVTEQDSKDSTYSLSSTLTLSKADYEKHKVYACEVTHQGLSSPVTKSFNRGEC
- binding result [2]: binds

B3: rituximab-ULBP2.C MicAbody (bispecific antibody, human IgG1, kappa)
heavy: not shown
light: QIVLSQSPAILSASPGEKVTMTCRASSSVSYIHWFQQKPGSSPKPWIYATSNLASGVPVRFSGSGSGTSYSLTISRVEAEDAATYYCQQWTSNPPTFGGGTKLEIKTVAAPSVFIFPPSDEQLKSGTASVVCLLNNFYPREAKVQWKVDNALQSGNSQESVTEQDSKDSTYSLSSTLTLSKADYEKHKVYACEVTHQGLSSPVTKSFNRGECAPTSSSGGGGSEPHSLSYDITVIPKFRPGPRWCAVQGQVDEKTFLHYDCGNKTVTPVSPLGKKLNVTTAWKAQNPVLREVVDILTEQLWDIQLENYTPKEPLTLQARMSCEQKAEGHSSGSWQFSFDGQIFLLFDSEKRMWTTVHPGARKMKEKWENDKVVATILWQTSMGDCIGWLEDFLMGMDSTLEPS
- binding result [3]: no binding

B4: ULBP2.wt rituximab-MicAbody (bispecific antibody, human IgG1, kappa)
heavy: not shown
light: QIVLSQSPAILSASPGEKVTMTCRASSSVSYIHWFQQKPGSSPKPWIYATSNLASGVPVRFSGSGSGTSYSLTISRVEAEDAATYYCQQWTSNPPTFGGGTKLEIKRTVAAPSVFIFPPSDEQLKSGTASVVCLLNNFYPREAKVQWKVDNALQSGNSQESVTEQDSKDSTYSLSSTLTLSKADYEKHKVYACEVTHQGLSSPVTKSFNRGECAPTSSSGGGGSEPHSLSYDITVIPKFRPGPRWCAVQGQVDEKTFLHYDCGNKTVTPVSPLGKKLNVTTAWKAQNPVLREVVDILTEQLRDIQLENYTPKEPLTLQARMSCEQKAEGHSSGSWQFSFDGQIFLLFDSEKRMWTTVHPGARKMKEKWENDKVVAMSFHYFSMGDCIGWLEDFLMGMDSTLEPS
notes: Rituximab IgG1 with wild-type ULBP2 α1-α2 domain fused to the light chain; bivalent for the α1-α2 domain; also called ULBP2 MicAbody; ULBP2 wild-type MicAbody
- binding result (Fc-NKG2D.Y152A [4]): binds
- Kd [5]: 1.4 nM

B5: rituximab-ULBP2.S3 MicAbody (bispecific antibody, human IgG1, kappa)
heavy: not shown
light: QIVLSQSPAILSASPGEKVTMTCRASSSVSYIHWFQQKPGSSPKPWIYATSNLASGVPVRFSGSGSGTSYSLTISRVEAEDAATYYCQQWTSNPPTFGGGTKLEIKRTVAAPSVFIFPPSDEQLKSGTASVVCLLNNFYPREAKVQWKVDNALQSGNSQESVTEQDSKDSTYSLSSTLTLSKADYEKHKVYACEVTHQGLSSPVTKSFNRGECAPTSSSGGGGSEPHSLSYDITVIPKFRPGPRWCAVQGQVDEKTFLHYDCGNKTVTPVSPLGKKLNVTTAWKAQNPVLREVVDILTEQLWDIQLENYTPKEPLTLQARMSCEQKAEGHSSGSWQFSFDGQIFLLFDSEKRMWTTVHPGARKMKEKWENDKVVATKLYLWSMGDCIGWLEDFLMGMDSTLEPS
notes: also called ULBP2.S3 as a MicAbody
- binding result [6]: no binding
- binding result [7]: no binding

B6: rituximab-ULBP2.R MicAbody (bispecific antibody, human IgG1, kappa)
heavy: not shown
light: QIVLSQSPAILSASPGEKVTMTCRASSSVSYIHWFQQKPGSSPKPWIYATSNLASGVPVRFSGSGSGTSYSLTISRVEAEDAATYYCQQWTSNPPTFGGGTKLEIKRTVAAPSVFIFPPSDEQLKSGTASVVCLLNNFYPREAKVQWKVDNALQSGNSQESVTEQDSKDSTYSLSSTLTLSKADYEKHKVYACEVTHQGLSSPVTKSFNRGECAPTSSSGGGGSEPHSLSYDITVIPKFRPGPRWCAVQGQVDEKTFLHYDCGNKTVTPVSPLGKKLNVTTAWKAQNPVLREVVDILTEQLWDIQLENYTPKEPLTLQARMSCEQKAEGHSSGSWQFSFDGQIFLLFDSEKRMWTTVHPGARKMKEKWENDKVVATLLWGWSMGDCIGWLEDFLMGMDSTLEPS
notes: also called ULBP2.R rituximab-MicAbody; rituximab-MicAbody
- binding result (Fc-NKG2D.Y152A [8]): no binding
- binding result [7]: no binding
